# Laboratory results published in article PMC3856898 (FEBS letters, 2013).
# Where “and” joins values, the source holds several entries; their conditions need not be identical. Identical values can stand only once.
# B1: FlnA repeats 23-24 (domain or fragment)
# chain: GHGGDPGLVSAYGAGLEGGVTGNPAEFVVNTSNAGAGALSVTIDGPSKVKMDCQECPEGYRVTYTPMAPGSYLISIKYGGPYHIGGSPFKAKVTGPRLVSNHSLHETSSVFVDSLTKATCAPQHGAPGPGPADASKVVAKGLGLSKAYVGQKSSFTVDCSKAGNNMLLVGVHGPRTPCEEILVKHVGSRLYSVSYLLKDKGEYTLVVKWGDEHIPGSPYRVVVP
# Experiments:
# [1] = molecular target: T1, Nrp1 cytoplasmic domain (UniProt P97333 880-923); assay: ITC
# [2] = molecular target: T1, Nrp1 cytoplasmic domain; assay: SPR
# T1 sequence (P97333 880-923): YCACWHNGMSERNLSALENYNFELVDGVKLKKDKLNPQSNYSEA
binder,measurement,setting,value
B1,Kd,[1],12.1 µM and 12.9 µM
same,Kd,[2],9.6 ± 1.2 µM
